From patent US20200338219A1 (ACTINIUM PHARMACEUTICALS, published 2020)

How the values were obtained:
[1] = target: T1, human CD45 protein, wild-type (WT) construct expressed on HEK-293T cells (human, UniProt P08575 26-1306); experiment: high-throughput flow cytometry on HEK-293T cells expressing WT CD45 against vector alone, 5.00 µg/ml
T1 construct: also called target protein (WT); PTPRC
T1 sequence: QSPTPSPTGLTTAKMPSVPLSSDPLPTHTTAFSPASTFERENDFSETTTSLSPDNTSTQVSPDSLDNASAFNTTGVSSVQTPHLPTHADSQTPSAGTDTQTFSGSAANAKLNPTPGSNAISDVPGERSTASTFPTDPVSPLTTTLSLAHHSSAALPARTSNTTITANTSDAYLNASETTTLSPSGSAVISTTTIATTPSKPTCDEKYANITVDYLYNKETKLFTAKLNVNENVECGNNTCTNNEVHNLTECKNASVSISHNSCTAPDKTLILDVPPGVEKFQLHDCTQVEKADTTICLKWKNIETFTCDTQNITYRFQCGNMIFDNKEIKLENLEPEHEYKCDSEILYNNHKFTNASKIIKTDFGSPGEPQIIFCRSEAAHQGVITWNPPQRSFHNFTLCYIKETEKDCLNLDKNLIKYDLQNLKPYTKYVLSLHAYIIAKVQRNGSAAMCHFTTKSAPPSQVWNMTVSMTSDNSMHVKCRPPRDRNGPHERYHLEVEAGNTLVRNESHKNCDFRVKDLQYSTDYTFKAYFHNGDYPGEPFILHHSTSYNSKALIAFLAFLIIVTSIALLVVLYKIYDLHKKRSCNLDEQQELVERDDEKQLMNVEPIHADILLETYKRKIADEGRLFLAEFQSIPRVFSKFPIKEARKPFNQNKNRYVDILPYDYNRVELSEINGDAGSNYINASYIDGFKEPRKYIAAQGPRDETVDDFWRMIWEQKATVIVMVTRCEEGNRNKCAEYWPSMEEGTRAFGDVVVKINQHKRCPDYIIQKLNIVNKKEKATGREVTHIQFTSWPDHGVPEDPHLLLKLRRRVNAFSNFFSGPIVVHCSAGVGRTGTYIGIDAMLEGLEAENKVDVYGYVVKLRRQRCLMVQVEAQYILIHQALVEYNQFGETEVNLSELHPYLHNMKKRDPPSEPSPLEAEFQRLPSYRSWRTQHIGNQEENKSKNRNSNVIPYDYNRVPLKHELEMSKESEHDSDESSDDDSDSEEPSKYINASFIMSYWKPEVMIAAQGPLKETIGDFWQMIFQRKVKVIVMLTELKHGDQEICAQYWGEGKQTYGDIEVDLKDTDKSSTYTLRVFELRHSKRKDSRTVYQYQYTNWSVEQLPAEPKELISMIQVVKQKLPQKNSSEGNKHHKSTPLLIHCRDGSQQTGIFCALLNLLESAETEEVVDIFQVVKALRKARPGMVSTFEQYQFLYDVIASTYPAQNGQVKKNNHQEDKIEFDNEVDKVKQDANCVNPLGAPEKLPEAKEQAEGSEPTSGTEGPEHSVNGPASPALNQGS
Description: (§1) Cells were transfected with a wild-type (WT) construct of the target protein or with vector alone in 384-well format, followed by detection of cellular expression via high-throughput flow cytometry. Serial dilutions of each MAb were tested for immunoreactivity against cells expressing target protein (WT) or vector alone.

[2] = target: T1, human CD45 protein, wild-type (WT) …; experiment: high-throughput flow cytometry on HEK-293T cells expressing WT CD45 against vector alone, 5.0 ug/ml
Description: as §1

B1: murine anti-CD45 monoclonal antibody BC8 (antibody, mouse IgG1, kappa, V domains shown)
VH: EVKLLESGGGLVQPGGSLKLSCAASGFDFSRYWMSWVRQAPGKGLEWIGEINPTSSTINFTPSLKDKVFISRDNAKNTLYLQMSKVRSEDTALYYCARGNYYRYGDAMDYWGQGTSVTVSS
VL: DIALTQSPASLAVSLGQRATISCRASKSVSTSGYSYLHWYQQKPGQPPKLLIYLASNLESGVPARFSGSGSGTDFTLNIHPVEEEDAATYYCQHSRELPFTFGSGTKLEIKR
modifications: position 141 is found to be a mixture of ASP and ASN in the purified protein (deamidation of ASN-141)
notes: Purified from hybridoma ATCC HB-10507; also called BC8 MAb; anti-CD45 immunoglobulin BC8
For B1, the “Signal:Background” value [1] was 9 signal:background ratio.

B2: BC8 Fab (Fab, V domains shown)
VH: EVKLLESGGGLVQPGGSLKLSCAASGFDFSRYWMSWVRQAPGKGLEWIGEINPTSSTINFTPSLKDKVFISRDNAKNTLYLQMSKVRSEDTALYYCARGNYYRYGDAMDYWGQGTSVTVSS
VL: DIALTQSPASLAVSLGQRATISCRASKSVSTSGYSYLHWYQQKPGQPPKLLIYLASNLESGVPARFSGSGSGTDFTLNIHPVEEEDAATYYCQHSRELPFTFGSGTKLEIKR
notes: It was detected with an anti-mouse F(ab')2 secondary antibody; also called Test Fab
For B2, the “Signal:Background” value [2] was 6 signal:background ratio.
